The target of the experiment is RagA:RagC^D181N GTPase heterodimer (UniProt Q7L523 1-313; Q9HB90 1-399, D181N). Description: SEC. (SEC sorts molecules by how far they enter the pores of the column.)
RagA:RagC^D181N GTPase heterodimer, sequence (Q7L523 whole entry, chain 1 of 2): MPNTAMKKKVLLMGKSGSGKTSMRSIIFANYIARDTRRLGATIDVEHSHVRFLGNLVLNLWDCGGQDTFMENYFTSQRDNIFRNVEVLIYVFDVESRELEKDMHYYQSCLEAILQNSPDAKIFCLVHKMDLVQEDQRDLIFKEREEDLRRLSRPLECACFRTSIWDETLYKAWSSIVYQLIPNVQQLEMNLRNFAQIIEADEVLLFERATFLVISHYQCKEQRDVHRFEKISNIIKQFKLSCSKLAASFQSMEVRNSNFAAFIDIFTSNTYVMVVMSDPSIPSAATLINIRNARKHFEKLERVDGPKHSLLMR
RagA:RagC^D181N GTPase heterodimer, sequence (Q9HB90 whole entry D181N, chain 2 of 2): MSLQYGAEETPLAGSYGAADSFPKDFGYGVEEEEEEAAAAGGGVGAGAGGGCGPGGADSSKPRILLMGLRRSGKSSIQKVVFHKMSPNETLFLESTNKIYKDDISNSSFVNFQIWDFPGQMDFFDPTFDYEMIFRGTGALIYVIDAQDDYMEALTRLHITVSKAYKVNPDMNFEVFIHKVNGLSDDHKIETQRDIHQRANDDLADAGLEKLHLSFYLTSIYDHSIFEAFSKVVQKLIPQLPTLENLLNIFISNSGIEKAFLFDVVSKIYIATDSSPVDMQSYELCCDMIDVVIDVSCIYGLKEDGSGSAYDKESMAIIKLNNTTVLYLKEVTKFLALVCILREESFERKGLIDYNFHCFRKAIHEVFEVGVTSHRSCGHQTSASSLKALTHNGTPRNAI

B1: SLC38A9 N-terminal cytoplasmic tail (residues 1–119) (domain or fragment, human, UniProt Q8NBW4 1-119, looked up)
chain: MANMNSDSRHLGTSEVDHERDPGPMNIQFEPSDLRSKRPFCIEPTNIVNVNHVIQRVSDHASAMNKRIHYYSRLTTPADKALIAPDHVVPAPEECYVYSPLGSAYKLQSYTEGYGKNTS
In the case of B1, the binding result is listed as “binds”.

The values above are taken from PMC7644641 (Nature structural & molecular biology, 2020).
